These results are taken from patent US20150359843A1 (AGENCY FOR SCIENCE TECHNOLOGY AND RESEARCH, published 2015).

No end group written: not given here.

The assay concerns the target T1, p53 wt-FL (human, UniProt P04637 1-393).
T1 construct: mature; Full-length protein made by in vitro transcription/translation, used unpurified in the IVT mixture; also called wild-type full length p53; IVT synthesized p53 wt-FL
Nature of the assay: ELISA conformation 1: biotinylated peptide on streptavidin plate, IVT p53 wt-FL added, detected with DO-1, Bp53 10.1 or CM1 and HRP secondary; ctrl = no p53 extract.

T1 sequence (P04637 whole entry): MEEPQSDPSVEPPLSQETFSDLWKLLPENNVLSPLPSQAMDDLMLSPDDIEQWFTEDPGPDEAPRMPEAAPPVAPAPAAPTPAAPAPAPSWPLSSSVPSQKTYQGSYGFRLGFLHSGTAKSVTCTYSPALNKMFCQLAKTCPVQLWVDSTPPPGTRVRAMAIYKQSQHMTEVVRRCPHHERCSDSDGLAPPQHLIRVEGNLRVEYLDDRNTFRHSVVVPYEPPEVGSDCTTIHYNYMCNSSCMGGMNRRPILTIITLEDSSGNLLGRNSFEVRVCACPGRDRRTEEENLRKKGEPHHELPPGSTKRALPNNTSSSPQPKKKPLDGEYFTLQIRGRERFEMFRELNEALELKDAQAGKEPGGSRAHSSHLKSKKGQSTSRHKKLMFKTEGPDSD

As for SPTTNH (also: biotin at N- or C-terminus in ELISA forms only, also called peptide SPT; Peptide-P1) [Pap-SPT], the binding result is given as “no binding”.

In the case of MPHLMAC (also: biotin at N- or C-terminus in ELISA forms, also called peptide MPH) [Pap-MPH], the binding result is listed as “no binding”.
